Sequences and labels used below:
B1: Anti-CD5 antibody 31 (3P16) (antibody, human IgG1, V domains shown)
VH: EVQLKESGPELKKPGETVKISCMTSGYMFTNHGMNWVKQAPGKGLKWMGWINTYTGEPTYGDGFKGRFVFSLETSASTAYLQINNLKNEDTATYFCARRVATYFDV
VL: NIVLTQSPAILSVSPGERVSFSCRASQRIGTSMNWYQQRTNGSPRLLIKSASESISGIPSRFSGSGSGTDFTLSINSVESDDVADYYCQQSNSWPLT
notes: also called Ab31; Clone 31
B2: Anti-CD5 antibody 32 (4F3) (antibody, human IgG1, V domains shown)
VH: EVKLVESGPELKKPGETVKISCKASGYMFTNYGMNWVKQAPGKGLKWMGWINTYTGEPTYVEDFKGRFAFSLETSANTAYLQINNLKNEDTATYFCTRRSHITLDY
VL: DIVLTQSPVILSVSPGERVSLSCRASQSIGTSINWYQQRTDGSPRLLIKSASESMSGIPSRFSGSGSGTDFTLSITSVESEDIADYYCQQSNSWPLT
notes: also called Ab32; Clone 32
B3: Anti-CD5 antibody 14 (7P9) (antibody, human IgG1, V domains shown)
VH: EVQLKESGAELVKPGASVKLSCTASGFNIKDTYMHWVKQRPEQGLEWIGRIDPANGNTKYDPKFQGKATITADTSSNTAYLQLSSLTSEDTAVYYCAREENYYGTYYFDY
VL: NIVLTQSPASLAASVGETVTITCRASENIYYNLAWYQQKQGKSPQLLIYNANSLEDGVPSRFSGSGSGTQYSMKINSMQPEDTATYFCKQVYDVPFT
notes: also called Ab14; Clone 14
B4: Anti-CD5 antibody 29 (8E15) (antibody, human IgG1, V domains shown)
VH: QVQLKESGADLVKPGASVKLSCTASGFNIKDTYMNWVKERPEQGLEWIGRIDPANGNTKYDPKFQGKATITADTSSNTGYLQLSSLTSEDTAVYYCASYDPDY
VL: DIVLTQSPASLAASVGETVTITCRASENIYYNLAWYQQKQGKSPQLLIYNANSLEGGVPSRFSGSGSGTQYSMKINSMQPEDTATYFCKQAYDVPWT
notes: also called Ab29; Clone 29
B5: Anti-CD5 antibody 9 (6M4) (antibody, human IgG1, V domains shown)
VH: QVQLKESGPELEKPGASVKISCKASGYSFTAYSMNWVKQNNGMSLEWIGSIDPYYGDTKYAQKFKGKATLTVDKASSTAYLQLKSLTSEDSAVYYCARRMITTGDWYFDV
VL: HIVLTQSPSSLSASLGDRVTISCRASQDISTYLNWYQQKPDGTVKLLIFYTSRLHAGVPSRFSGSGSGTHHSLTISNLEQEDIATYFCQQGNSLPFT
notes: also called Ab9; Clone 9
B6: Anti-CD5 antibody 15 (8E24) (antibody, human IgG1, V domains shown)
VH: QVTLKESGAELVRPGASVKLSCKASGYSFTSYWMNWVKQRPGQGLEWIGMIHPSDSETRLNQKFKDKATLTVDKSSSTAYMQLSSPTSEDSAVYYCARWGDHDDAMDF
VL: DIVLTQSPASLSASVGESVTITCRPSENIYGYFAWYQQRQGKSPQLLVYNAKTLAEGVPSRFSGSGSGTHFSLKINSLQPEDFGTYYCQHHYGTPFT
notes: also called Ab15; Clone 15
B7: Anti-CD5 antibody 23 (2H11) (antibody, V domains shown)
VH: EVQLQQSGPELVKPGTSVKISCKASGYTFTDYYINWVKQKPGQGLEWIGWIYPGGGNTRYIERFKGKATLTVDTSSSTAYMQLSSLTSEDTAVYFCARNGYWYFDV
VL: DIVLTQSPSSLTVTAGEKVTMSCKSSQSLLNQKNYLTWYQQKTGQPPKLLIYWASTRESGVPDRFTGSGSGTDFTLTISSVQAEDLAVYYCQNDYDYPYT
notes: also called Ab23; Clone 23
B8: Anti-CD5 antibody 8 (8G8) (antibody, human IgG1, V domains shown)
VH: QVQLKESGPELEKPGASVRISCKASGYSFTAYNINWVTQRDGKSLEWIGSIDPYYGDTKYNQKFKDKATLTVDKSSSTAHMQVKSLTSEDSAIYYCARRMITMGDWYFDV
VL: EIVLTQSPSSLSASLGDRVTISCRASQDISNYLNWYQRKPDGTVKLLIYYTSRLQSGVPSRFSGSGSGSEYSLTISNLDQEDIATYFCQQGDALPWT
notes: also called Ab8; Clone 8
B9: Anti-CD5 antibody 11 (4E24) (antibody, human IgG1, V domains shown)
VH: EVQLKESGAELVRPGGSVKISCKGSGYTFTNFAIHWVKQSHIKTLEWIGLISTSSGDVSYNQKFKDKATMTVDKSSSTAYMELARLTSEDSAIYYCARHYGANNYFDY
VL: EIVLTQSPTIMSASPGEQVTMTCRTNSSVSSSYLHWYQQKSGASPKLWIYGTSNLASGVPTRFSGSGSGTSYSLTISSVEAGDAATYFCQQYSGYPLT
notes: also called Ab11; Clone 11
B10: Anti-CD5 antibody 12 (4F10) (antibody, human IgG1, V domains shown)
VH: EVQLQESGAELVRPGVSVKISCKGSGYTFTNFAIHWVKQSHAKSLEWIGLISSNSGDVSYNQKFKGKATMTVDKSSSTAYMELARLTSEDSAIYYCARHYGAHNYFDY
VL: DIVLTQSPAIMSASPGEQVTMTCRATSSISSSYLHWYQQKSGASPKLWIYGTSNLASGVPTRFSGSGSGTSYSLTISSVEAEDAATYYCQQYSDYPLT
notes: also called Ab12; Clone 12
B11: Anti-CD5 antibody 1 (1D8) (antibody, human IgG1, V domains shown)
VH: EVQLQESGPELVKPEASVKISCKASGYSFTGYTMNWVKQSHGKNLEWIGLINPYNGGTTYNQKFKGKATLTVDTSSSTAFMELLSLTSEDSAVYYCARDYYGSSPDFDY
VL: DIVLTQSTSSLSASLGDRVTINCSASQGISNHLNWFQQKSDGTVKLLIYFTSSLHSGVPSRFSGSGSGTDYSLTISNLEPEDIAAYYCQQYSNLPYT
notes: also called Ab1; Clone 1
B12: Anti-CD5 antibody 34 (5O24) (antibody, human IgG1, V domains shown)
VH: EVKLVESGAELVRSGASVKLSCAASGFNIKDYYIHWVKQRPEQGLEWIGWIDPENGRTEYAPKFQGKATMTADTSSNTAYLQLSSLTSEDTAVYYCNNGNYVRHYYFDY
VL: DVVLTQSPAILSASPGEKVTMTCRAISSVSYMHWYQQKPGSSPKPWIYATSNLASGVPARFSGSGSGTSYSLTISRVEAEDAATYYCQQWSSNPRT
notes: also called Ab34; Clone 34
B13: Anti-CD5 antibody 18 (1E7) (antibody, human IgG1, V domains shown)
VH: QVQLKESGGGLVQPGGSLKLSCAASGFTFSNYGMSWVRQIPDKRLELVAAINSNGDITYDPDSVKGRFTISRDNANNSLFLQMRSLKSEDTAMYYCARGTAWFTYWGQGTLVT
VL: DIVLTQSPASLSASVGETVIITCRASENIYSYLVWYQQKQGKSPQLLVYNAKTLAEGVPSRFSGSGSGTQFSLKINSLQSEDFGSYSCQHHYGYPYT
notes: also called Ab18; Clone 18
B14: Anti-CD5 antibody 17 (7H7) (antibody, human IgG1, V domains shown)
VH: EVQLVESGPGLVQPSQSLSITCTVSGFSLTNYDVHWVRQSPGKGLEWLGVIWNYGNTDYNAAFISRLSIRKDSSKSQVFFTMSSLQTPDTAIYYCARNHGDGYYNWYFDV
VL: NIVLTQSPSSLSESLGGKVTITCKASQDINKYIAWYQYKPGKGPRLLIHYTSTLQPGIPSRFSGSGSGRDYSFSISNLEPEDIATYYCLQYDNLWT
notes: also called Ab17; Clone 17

This test deals with T1, Recombinant human CD5 extracellular domain (CD5-ECD) (human, UniProt P06127 25-372).
T1 construct: In-house protein made as CD5-ECD - TEV site - hGH fusion; CD5-ECD isolated by TEV cleavage and nickel column; also called CD5-ECD protein
T1 sequence: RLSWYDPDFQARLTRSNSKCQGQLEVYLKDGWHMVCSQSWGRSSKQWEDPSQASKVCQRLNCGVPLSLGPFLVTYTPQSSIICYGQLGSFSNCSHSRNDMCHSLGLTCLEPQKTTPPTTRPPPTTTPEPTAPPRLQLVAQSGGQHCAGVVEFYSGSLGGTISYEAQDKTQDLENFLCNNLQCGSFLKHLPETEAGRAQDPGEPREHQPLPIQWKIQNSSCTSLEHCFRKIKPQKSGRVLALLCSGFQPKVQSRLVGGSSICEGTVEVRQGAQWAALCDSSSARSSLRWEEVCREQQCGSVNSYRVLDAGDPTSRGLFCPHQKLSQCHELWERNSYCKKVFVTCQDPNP
The test can be described thus: SPR (Biacore 2000), antibody captured by anti-human Fc, CD5-ECD in solution, 1:1 fit.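 Further: CM5 chip, binding curves at four CD5-ECD concentrations fitted globally, with the signal of a non-CD5-binding control antibody subtracted as reference.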
Method: SPR analysis was performed on a Biacore 2000 machine containing four flow cells. A CM5 Biacore chip was conjugated with 8.000 Resonance units (Ru) polyclonal anti-human IgG Fc-specific antibody to flow cells 1-4 according to the manufacturer's instructions. Each anti-CD5 antibody was determined for binding to four different concentrations of CD5-ECD (concentrations for the four cycles are shown below) before the affinity was calculated. The non-CD5 binding antibody, Erbitux served as a negative control and was subtracted from the values obtained with the anti-CD5 specific antibodies. […] Subsequently, all flow cells were washed and after waiting 500 s, 250 μl of CD5-ECD 100 nM or 200 nM (Cycle 1) was injected in Flow cells 1-4. After waiting 1000 s, 30 μl H3PO4 was injected using a flow rate of 60 μl/min. The antibody/antigen complex was then stripped with a low pH acid wash (30 sec. contact time with 100 mM H3PO4). […] Four new cycles were then repeated until all the anti-CD5 antibody clones were tested for binding to CD5 in four different concentrations. The association rate constant (ka) and dissociation constant (kd) were evaluated globally by fitting the four binding curves to predefined 1:1 (Langmuir) association and dissociation models with BIAevaluation 4.1 software (Biacore), Table 13.
Regarding B1, the Kd came to 8.85 nM, the koff was 0.000803 s⁻¹ and the kon amounted to 90700 M⁻¹ s⁻¹.

For B2, the Kd was 0.903 nM, the koff is 0.000116 s⁻¹ and the kon came out at 128000 M⁻¹ s⁻¹.

As to B3, the Kd worked out at 5.6 nM, the off-rate constant (koff) was 0.0018 s⁻¹ and the kon was 321000 M⁻¹ s⁻¹.

As for B4, the Kd is 2.09 nM, the koff is 0.00137 s⁻¹ and the kon amounted to 655000 M⁻¹ s⁻¹.

As for B5, the Kd is 4.35 nM, the koff is 6.17e-05 s⁻¹ and the kon worked out at 14200 M⁻¹ s⁻¹.

Take B6: the Kd turned out to be 23.4 nM, the koff came out at 0.00127 s⁻¹ and the kon came to 54400 M⁻¹ s⁻¹.

For B7, the Kd worked out at 4.79 nM, the koff stood at 0.000105 s⁻¹ and the kon stood at 21900 M⁻¹ s⁻¹.

For B8, the Kd is 0.37 nM, the koff came to 9.81e-06 s⁻¹ and the association rate constant (kon) was 26500 M⁻¹ s⁻¹.

B9: the Kd worked out at 0.315 nM, the dissociation rate constant (koff) was 2.2e-05 s⁻¹ and the kon was determined as 69900 M⁻¹ s⁻¹.

Regarding B10, the Kd stood at 1.18 nM, the koff was 0.000115 s⁻¹ and the kon came out at 97000 M⁻¹ s⁻¹.

As for B11, the Kd stood at 5.19 nM, the koff was 0.000557 s⁻¹ and the on-rate (kon) turned out to be 107000 M⁻¹ s⁻¹.

On to B12, for which the Kd worked out at 61.3 nM, the dissociation rate constant (koff) was determined as 0.00084 s⁻¹ and the kon amounted to 13700 M⁻¹ s⁻¹.

As to B13, the dissociation constant (Kd) came out at 0.205 nM, the dissociation rate constant (koff) was 3.27e-05 s⁻¹ and the kon turned out to be 160000 M⁻¹ s⁻¹.

In the case of B14, the Kd was determined as 0.164 nM, the koff is 8.45e-05 s⁻¹ and the kon worked out at 515000 M⁻¹ s⁻¹.

Source of the values: patent US20110250203A1 (SYMPHOGEN A S, published 2011).
